Legend:
ADF-1 (D. funebris) = molecular target: T1, ADF-1 (D. funebris) (Drosophila funebris, UniProt E2DD98 1-262); assay: EMSA
T1 sequence: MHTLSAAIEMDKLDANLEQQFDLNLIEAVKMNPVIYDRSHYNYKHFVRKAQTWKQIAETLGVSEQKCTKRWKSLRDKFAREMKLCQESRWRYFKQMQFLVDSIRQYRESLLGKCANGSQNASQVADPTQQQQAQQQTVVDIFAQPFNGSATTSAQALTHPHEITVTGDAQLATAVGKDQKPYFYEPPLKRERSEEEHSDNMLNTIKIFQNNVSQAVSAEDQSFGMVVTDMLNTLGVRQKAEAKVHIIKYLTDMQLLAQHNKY

ADF-1 (D. melanogaster) = molecular target: T2, ADF-1 (D. melanogaster) (Drosophila melanogaster, UniProt P05552 1-262); assay: EMSA
T2 sequence: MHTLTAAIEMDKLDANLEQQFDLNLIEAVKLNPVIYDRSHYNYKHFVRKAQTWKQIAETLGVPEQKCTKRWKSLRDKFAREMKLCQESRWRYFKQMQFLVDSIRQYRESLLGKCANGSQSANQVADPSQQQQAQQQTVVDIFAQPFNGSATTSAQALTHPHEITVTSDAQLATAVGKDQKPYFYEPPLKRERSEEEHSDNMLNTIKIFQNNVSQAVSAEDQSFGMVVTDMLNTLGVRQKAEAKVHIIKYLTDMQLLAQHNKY

B1: Oligo 2 (dsDNA)
DNA 1: ATCGACGTCAACGGCAGCGTTCACAT
DNA 2: ATGTGAACGCTGCCGTTGACGTCGAT
- Kd (ADF-1 (D. funebris)): 5.05 µM
- Kd (ADF-1 (D. melanogaster)): 4.07 µM

B2: Oligo 4 (dsDNA)
DNA 1: TCGCTGTCTCAGTCGACGCTATTGAT
DNA 2: ATCAATAGCGTCGACTGAGACAGCGA
- Kd (ADF-1 (D. funebris)): 1.86 µM
- Kd (ADF-1 (D. melanogaster)): 1.63 µM

B3: Oligo 3 (dsDNA)
DNA 1: TCAATGTCGCCGTCGCTGTCTCAGTCG
DNA 2: CGACTGAGACAGCGACGGCGACATTGA
- Kd (ADF-1 (D. funebris)): 28.3 µM
- Kd (ADF-1 (D. melanogaster)): 27.5 µM

B4: Oligo 1 (dsDNA)
DNA 1: ATCGACGTCGGCGTCGACATCGTGA
DNA 2: TCACGATGTCGACGCCGACGTCGAT
- Kd (ADF-1 (D. funebris)): 1.95 µM
- Kd (ADF-1 (D. melanogaster)): 1.98 µM

Source: paper PMC2965233
